Drawing on PMC11986948, “The carboxylesterase AtCXE12 converts volatile (Z)-3-hexenyl acetate to (Z)-3-hexenol in Arabidopsis leaves” (Plant Physiology, 2025), this text covers Km, kcat and kcat/Km for two proteins.

Assay in all cases: GC-MS of (Z)-3-hexenol formed, Michaelis-Menten fit
Type in all cases: biochemical, Arabidopsis thaliana
Conditions in all cases: 50 mM Tris-HCl pH 7.5, 30 °C, 10 min, 0.5 µM enzyme

Substrate in data set [1]: CC/C=C\CCOC(C)=O
An excerpt:
(§1) GC-MS of (Z)-3-hexenol formed, Michaelis-Menten fit on AtCXE5

Substrate in data set [2]: CC/C=C\CCOC(=O)CC
Excerpt: as §1

Substrate in data set [3]: CC/C=C\CCOC(=O)CCC
Excerpt: as §1

Substrate in data set [4]: CC/C=C\CCOC(C)=O
The source says: (§2) GC-MS of (Z)-3-hexenol formed, Michaelis-Menten fit on AtCXE12
This is another data set of the same source.

Substrate in data set [5]: CC/C=C\CCOC(=O)CC
Excerpt: as §2
The source holds these as a separate data set.

Substrate in data set [6]: CC/C=C\CCOC(=O)CCC
Excerpt: as §2
This is another data set of the same source.

For orientation: Km means the concentration of substrate that gives half-maximal velocity. The term kcat denotes the maximal rate divided by the concentration of active sites. A word on the kcat/Km: it is the second-order rate constant that governs catalysis at low substrate concentration.

B1: AtCXE5 (Arabidopsis thaliana) (protein)
chain: MESEIASEFLPFCRIYKDGRVERLIGTDTIPASLDPTYDVVSKDVIYSPENNLSVRLFLPHKSTKLTAGNKLPLLIYIHGGAWIIESPFSPLYHNYLTEVVKSANCLAVSVQYRRAPEDPVPAAYEDVWSAIQWIFAHSNGSGPVDWINKHADFGKVFLGGDSAGGNISHHMAMKAGKEKKLDLKIKGIAVVHPAFWGTDPVDEYDVQDKETRSGIAEIWEKIASPNSVNGTDDPLFNVNGSGSDFSGLGCDKVLVAVAGKDVFVRQGLAYAAKLEKCEWEGTVEVVEEEGEDHVFHLQNPKSDKALKFLKKFVEFIIG
Turning to B1, the Michaelis constant (Km) in data set [1] is 8630 ± 1280 µM; in data set [2], 1450 ± 190 µM; in data set [3] it was 240 ± 30 µM. Also, the results for the catalytic constant (kcat) in data set [1], in data set [2] and in data set [3] were 3.17 s⁻¹, 0.3 s⁻¹ and 0.16 s⁻¹, respectively. The kcat/Km in data set [1] worked out at 380 M⁻¹ s⁻¹; in data set [2] it was 210 M⁻¹ s⁻¹; in data set [3] it was 650 M⁻¹ s⁻¹.

B2: AtCXE12 (Arabidopsis thaliana) (protein)
chain: MDSEIAVDCSPLLKIYKSGRIERLMGEATVPPSSEPQNGVVSKDVVYSADNNLSVRIYLPEKAAAETDSKLPLLVYFHGGGFIIETAFSPTYHTFLTTSVSASNCVAVSVDYRRAPEHPISVPFDDSWTALKWVFTHITGSGQEDWLNKHADFSRVFLSGDSAGANIVHHMAMRAAKEKLSPGLNDTGISGIILLHPYFWSKTPIDEKDTKDETLRMKIEAFWMMASPNSKDGTDDPLLNVVQSESVDLSGLGCGKVLVMVAEKDALVRQGWGYAAKLEKSGWKGEVEVVESEGEDHVFHLLKPECDNAIEVMHKFSGFIKGGN
Turning to B2, the results for the Km in data set [4], in data set [5] and in data set [6] were 5940 ± 840 µM, 2260 ± 340 µM and 460 ± 50 µM, respectively. The kcat in data set [4] stood at 3.78 s⁻¹; in data set [5] it was 2.25 s⁻¹; in data set [6], 0.85 s⁻¹. Also, the kcat/Km in data set [4] stood at 640 M⁻¹ s⁻¹; in data set [5], 990 M⁻¹ s⁻¹; in data set [6], 1860 M⁻¹ s⁻¹.
